Results on four substances are retold here after PMC8527181.

Test [1] has as its target Ptr4CL (endogenous in SDX extract, member not told). As to the kind of experiment: cross-linking; crude SDX extract (25 mM sodium phosphate buffer, pH 7.4) cross-linked with DSP, SDS-PAGE, western blot with PtrHCT1 and PtrHCT6 specific antibodies.
Test [2] has as its target Ptr4CL3-6 × His, recombinant (Populus trichocarpa). As to the kind of experiment: cross-linking; recombinant Ptr4CL and PtrHCT, 200 nM each in PBS, DSP at 20-fold molar excess, room temperature 5 min, SDS-PAGE, western blot with Ptr4CL3 and PtrHCT1 antibodies. For orientation: A western blot detects proteins with antibodies after separation by electrophoresis.
Test [3] has as its target Ptr4CL5-6 × His, recombinant (Populus trichocarpa). Described as above.

“PtrHCT1, endogenous in SDX protein extract (enzyme)”: the stoichiometry N (PtrHCT per Ptr4CL) in test [1] is 2. Take PtrHCT1-6 × His, recombinant (enzyme): the stoichiometry N (PtrHCT per Ptr4CL) in test [2] and in test [3] was 2 each time.

Substance “PtrHCT6, endogenous in SDX protein extract (enzyme)” yielded a stoichiometry N (PtrHCT per Ptr4CL) in test [1] of 2. Turning to PtrHCT6-6 × His, recombinant (enzyme), in test [2], the stoichiometry N (PtrHCT per Ptr4CL) came out at 2.
